Assay: soluble on expression in E. coli; label from the status in PepcDB or PDB records

Row | Sequence | soluble on expression in E. coli
1 | AAKGTAETKQEKSFVDWLLGKITKEDQFYETDPILRGGDVKSSGSTSGKKGGTTSGKKGTVSIPSKKKNGNGGVFGGLFAKKD | soluble
2 | AATITTSGTVLPTVTVAGHRAAIDEAPPLYKGGQVGSGARMGVLGNTAVMDTPFSVTSYSAQVIENNQARSVADIAAMDPSVRMSSARSNINEDLTMRGFSVSSADFALNGLFGLTPYWRAPLESIERVEVIKGPSAALFGMAPGSSVGGVVNLVPKRAGDTP | not soluble
3 | AATSRTERIWPGGVIPYVIGGNFTGSQRAMFKQAMRHWEKHTCVTFIERSDEESYIVFTYRPCGCCSYVGRRGNGPQAISIGKNCDKFGIVVHELGHVIGFWHEHTRPDRDNHVTIIRENIQPGQEYNFLKMEPGEVNSLGERYDFDSIMHYARNTFSRGMFLDTILPSRDDNGIRPAIGQRTRLSKGDIAQARKLYRCPA | soluble
4 | ADPEKSYAEGPGLDGGECFQPSKFKIHAVDPDGVHRTDGGDGFVVTIEGPAPVDPVMVDNGDGTYDVEFEPKEAGDYVINLTLDGDNVNGFPKTVTVKPA | soluble
5 | ADPVMLEVFNNLFMSIAEQMGYRLQNTAYSVNIKERLDFSCAIFDAAGNLIANAPHMPVHLGSMGESIKTVMRANASRMRPGDAYVVNDPYHGGTHLPDVTVITPVFDRAGRDILFFVGSRGHHADIGGTTPGSMPPDSRTVEDEGVLFTNFQLVGNGEFRDREAREILASGRWPARNPDQNIADLHAQIAANEKGVQELLRMCDHFGLDVVRAYMGHVQDNAEEAVRRVISVLKDGRYTYRLDNGAVIEVAVRVDRQARSAVVDFTGTSGQLENNFNAPGAIAVAAVLYVFRTLVDDEIPLNAGCLKPLEIIIPEGSMLRPNPPASVVAGNVETSMCIVNALYGALGVLAASQGTMNNFTFGNARYQYYETISGGTGAGPLRIDAAGPADAGFAGTSVVQAHMTNSRLTDPEVLELRFPVRLESYEIRHGSGGAGRYRGGDGGVRRVRFLEPMTAAILSNNRRHVPFGLAGGGAGAMGRNYVERADGRVEPLGPQDSAELAAGDVFVVETPGGGDYGPA | not soluble
6 | ADVYDIGRGAVMYVAGGKVSWAPRGGNEVKFEPVPKELKLVANRLHTSFPPHHVVDMSKFTFITPGSGVSMRVEYQYGCLPADTVPEGNCWWRLLDSLPPEVQYKEIRHANQFGYQTKHGVPGKYLQRRLQVNGLRAVTDTHGPIVIQYFSVKESWIRHLKLVEEPSLPGFEDLLRIRVEPNTSPLAGKDEKIFRFGSHKWYG | soluble
7 | AEEGAVAVCVRVRPLNSREESLGETAQVYWKTDNNVIYQVDGSKSFNFDRVFHGNETTKNVYEEIAAPIIDSAIQGYNGTIFAYGQTASGKTYTMMGSEDHLGVIPRAIHDIFQKIKKFPDREFLLRVSYMEIYNETITDLLCGTQKMKPLIIREDVNRNVYVADLTEEVVYTSEMALKWITKGEKSRHYGETKMNQRSSRSHTIFRMILESREKGEPSNCEGSVKVSHLNLVDLAGSERAAQTGAAGVRLKEGCNINRSLFILGQVIKKLSDGQVGGFINYRDSKLTRILQNSLGGNPKTRIICTITPVSFDETLTALQFASTAKYMKNTPYVNEVSTDEALEHHHHHH | soluble
8 | AEIKAVSAARLLDVASGKYVDNPLVIVTDGRITSIGKKGDAVPAGATAVDLPGVTLLPGLIDMHVHLDSLAEVGGYNSLEYSDRFWSVVQTANAKKTLEAGFTTVRNVGAADYDDVGLREAIDAGYVPGPRIVTAAISFGATGGHCDSTFFPPSMDQKNPFNSDSPDEARKAVRTLKKYGAQVIKICATGGVFSRGNEPGQQQLTYEEMKAVVDEAHMAGIKVAAHAHGASGIREAVRAGVDTIEHASLVDDEGIKLAVQKGAYFSMDIYNTDYTQAEGKKNGVLEDNLRKDRDIGELQRENFRKALKAGVKMVYGTDAGIYPHGDNAKQFAVMVRYGATPLQAIQSATLTAAEALGRSKDVGQVAVGRYGDMIAVAGDPLADVTTLEKPVFVMKGGAVVKAP | soluble
9 | AERLPDFLAKIQPSEIFPGADRYGKPEGKPMVARVYKGDEQLGLVYITTDAVNTRGYSSKPIDTLMVLANDGTIAGAKLVDHHEPIMLIGIPHLPAPGRAIRSNWLPAYIKPNFTLTNRLRLKGLPTVPQPSKATGAGVP | not soluble
10 | AGGLKYDLDLNLSHYKSVLKSMANPDYLYEYGALRTYVGGEIGEFWVYQTAGIFQNQAEVDEWNTAHGYKDQNGNWQPLQPVAKPGDIRFIDQNGDGMLDTNDRVKVGSGTPKVSLGFNINLTYKDFDLVANFYGDFGAKRYNYTKYQLERMDHVFNYGKNALNAWTPENPDTDIPRAVSGDPNKNSRTSTRFVENGDYLRLNNLQIGYNLPVKYCKKMGLSNLRIYVGATRLFTITNYKGYDPSTGSSVGQMGYDYAAIPLSRDFMMGLKFGF | not soluble
11 | AGHRGQCVGRHREVVAIDNSKATNPHAADSALAGFSSVVWVAGGQLKGAEIDELIVRHAGRIKAVALLGVDRDVIEDSVRTHIPGIPVLSVSETDPRRAMDEAVAWSVSQAEAGDAIVLAPAAASLDMYTGMGQRGDMFATAI | not soluble
12 | AGQGESGNPPATDKERFIASLMARMSNAEKIGQLRLVSVGADHPKEALMADIRAGKVGAIFNTVTRPDIRAMQDQVRHSRLKIPLFHAYDVAHGHRTIFPISLGLAASWDPEVVARSARISALEASADGLDMSFSPMVDITRDARWGRVSEGFGEDTYLTSLLSGVMVRAYQGSNLAAPDSIMAAVKHFALYGAAEGGRDYNTVDMSLPRMFQDYLPPYKAAVDAGAGAVMVSLNTINGVPATANRWLLTDLLRQQWGFKGLTISDHGAVKELIKHGLAGNERDATRLAIQAGVDMNMNDDLYSTWLPKLLAAGEIDQADIDRACRDVLAAKYDLGLFADPYRRLGKPDDPPFDTNAESRLHRQAAREVAREGLVLLKNRDGLLPLKKQGRIAVIGPLAKSQRDVIGSWSAAGVPRQAVTVYQGLANAVGERATLLYAKGANVSGDQAILDYLNSYNPEVEVDPRSAEAMLEEALRTARDADLVVAVVGESQGMAHEASSRTDLRIPASQRRLLKALKATGKPLVLVLMNGRPLSLGWEQENADAILETWFSGTEGGNAIADVLFGEHNPSGKLTMSFPRSVGQVPVYYNHLNTGRPMDHDNPGKYTSRYFDEANGPLYPFGYGLSYTEFSLSPLRLSSERLARGATLEARVTLSNSGKRAGATVVQLYLQDPVASLSRPVKELRGFRKVMLEPGESREIVFRLGEADLKFYDSQLRHTAEPGEFKVFVGLDSAQTESRSF | not soluble
13 | AHHHHHHASAKWVCKICGYIYDEDAGDPDNGISPGTKFEELPDDWVCPICGAPKSEFEKLEDGSFKLYSLAREFARDLLFEINGDVVTLSIKGVLLANTSSTSSNFSIFEVSENEFILAIQTSGYVVYLGIEAEEEIEEEVYPSLVRIIISEVMPIINNLVQVAKELSYKGADILLDDNMSSSLREAMYNLLLKHKKGKSPYEQVEVA | soluble
14 | AHHHHHHASAKWVCKICGYIYDEDAGDPDNGISPGTKFEELPDDWVCPICGAPKSEFEKLEDGSRFIDANVFIYAILKPKRELNEKELKIKRVSKEIFNRINGGEEVVTTVVHLSEVANVLEDAANLSFAISFLKDVLIKGNVIVEEVSDRDYMESVLLAEEKGVSINDALAYILMKRKGIEEIYTFDRHFENLDVRIVNS | soluble
15 | AHHHHHHGSFRLRDFEYYNRTVFLRVDLNSPMSNGKIISDARFRAVLPTIKYLIESGAKVVVGTHQGKPYSEEYSTTEEHARILSELLNMHVEYVEDIFGKYARERIKAMKPGEVIVLENLRFSAEEVKNATIEECEKTFFVRKLSQVIDLVVNDAFAAAHRSQPSLVGFARIKPMIMGFLMEKEVDALTKAYESEEKPRVYVLGGAKVDDSLKVAENVLRKEKADLILTGGLVGQLFTLAKGFDLGRENIKFLEKKGILKYVDWAEKILDEFYPYVRTPVDFAIDFKGERVEIDLLSDEKRLFDEYPILDIGSRTVEKYREILLKARIIVANGPMGVFEREEFAVGTIGVFKAIGESPAFSVIGGGHSIASIYKYNITGISHISTGGGAMLTFFAGEKLPVLEALKISYEKFSNLLS | soluble
16 | AHHHHHHGSGLISDADKKVIKEEFFSKMVNPVKLIVFVRKDHCQYCDQLKQLVQELSELTDKLSYEIVDFDTPEGKELAKRYRIDRAPATTITQDGKDFGVRYFGLPAGHEFAAFLEDIVDVSREETNLMDETKQAIRNIDQDVRILVFVTPTCPYCPLAVRMAHKFAIENTKAGKGKILGDMVEAIEYPEWADQYNVMAVPKIVIQVNGEDRVEFEGAYPEKMFLEKLLSALS | soluble
17 | AHHHHHHGSGNNTEVIKMVEVRLENLTKKFGDFTAVNSLNLTIKDGEFLVLLGPSGCGKTTTLRMIAGLEEPTSGKIYFGDRDVTYLPPKDRNVSMVFQSYAVWPHMTVYENIAFPLKIKKYPKDEIERRVKWAAELLQIEELLDRYPAQLSGGQRQRVAVARAIVVEPDVLLMDEPLSNLDAKLRVAMRAEIKKLQQKLKVTTIYVTHDQVEAMTMGDRIAVMNRGKLLQVGSPTEVYLNPNSVFVATFIGAPEMNILEVSVGEGYLEGEGFKIELPDDIMEALRNYIGKTVLFGIRPEHMVIEGISELAHMRRTAKIKGVVDFVEALGTDTIVHVRFEESIIKVKLPGHIPLEIGKEVSVLIDLDKIHIFDKNSEKAII | soluble
18 | AHHHHHHGSGRFKKVPSSLCPMKKPGDVLREILQEKGIKSVGTLSRKWPSGRDIYQELALLLLEGDGAIVELREETAESWDLNGKKVGPSKYAYVRPCFVEKFKVIVDGSEIAKRLPDYPWIIVDLTFWNRHIPKEKDKVALQLRETYAVVRRMYYPRRFAITWVNEEFKKKNKVPLEKVVSYEGSTADFLREKGINRVVLLDPNAEEVLSREDLQERAFIIGGIVDMKGDKKGTTAKIGEVLEKEGIDVLRRKIVLRGDIVGVPDRINHIAEILLRMLYGEDMEKAILAVQAPTHARWRLRKEIPKRKIRYLIDGKLYLVVEKELYDELKQWLNIRWEDFVKVLRETGMVALERRRIHHLNKISVFRFDKSGGKRVILLKRAALLCYNC | soluble
19 | AHHHHHHGSIIELDEFTRVEGNGKAEIVIENGEVKDARVKIVEGPRFFEILTLGRDYWDVPDLEARICAICYIAHSVASVRAIEKALGIDVPESVEKLRELALWGEIIESHALHLYLLALPDVFGYPDAISMIPRHGELVKEGLTIKAFGNAIRELIGGREIHGINIKPGGFGRYPSEEELEKIAEHSKSLIKFARRIVGIFASQEAGGAVGEVLMATSDYLWGDELIINGERVQYYEVDEVPVGYSFAKHSYYKGNPVFVGALPRLLLKGESIEGEAARMLEEYRDKLESKYVIYNNLAQAIELLYALERVPQLVEEILSEGIERGNGEISQESGEGVGYVEAPRGVLVHHYRIENGKVVWSNTITPTAFNQRLMELSLLEEAKRLYGSESEENMKKRLEVIVRAFDPCISCSVHFVKL | soluble
20 | AHHHHHHGSISETIRSGDWKGEKHVPVIEYEREGELVKVKVQVGKEIPHPNTTEHHIRYIELYFLPEGENFVYQVGRVEFTAHGESVNGPNTSDVYTEPIAYFVLKTKKKGKLYALSYCNIHGLWENEVTLE | soluble
21 | AHHHHHHGSKEEEIHVDPQIVKNITEILKNIKKMKVKQDKRVKWRRENDGRIITFNPITGKICVMNPTLAEIYVMTKNPKGCTFETLIRTLKQRFPSIDEKQLESDILRAMTWLFINGFVYLEDTSKKSKKINIVDVIMEISNQKRGPRQ | not soluble
22 | AHHHHHHGSKVYYPGREWPEEYKRVLEKMKEIIDPVTGDNILDSGVVAGLEVKDRTLKVWLRFESQAEYNILGGAAMAYSKIVGDIMEKFALVMFDNVYVYDLRNNIVGVFEKKK | not soluble

From the DeepSol protein solubility set
